Measured values published in the supplement of paper PMC11502859.
“And” between values parts separate entries of the source, which are not always exact repeats. Equal values may be shown once.

tested on: HEK293T; experiment: median enrichment of reporter reads in eGFP-reduced (low/intermediate) vs eGFP-high sorted cells (eGFP-extension fusion abundance) (ratio); higher = stronger loss of eGFP-fusion protein abundance (more destabilising extension)
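Further: lentiviral eGFP-IRES-mCherry reporter pool sorted by FACS 96 h post-transduction, gated on mCherry-high cells, Illumina read counts normalized per million, median across four biological replicates.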

Sequence of RBP1 (chain, as listed by the source): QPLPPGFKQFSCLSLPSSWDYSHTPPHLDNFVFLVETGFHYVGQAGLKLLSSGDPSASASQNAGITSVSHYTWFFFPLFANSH

Compared with “RAALLSSQAAPVPSPSTLEWSSSACFPSHRPATTPTMCRKHCLTIPHPPDNSQGWSPGHFQLLLSPCIVSLLCFFSLPPLLFL [RAB15]”, RAAPPSGQKLK [ALG1L] is lower in median enrichment: 7.07 for the first, 0.251 for the second.

Going from RAAQKETTKPLTVVTLDKETPVA [CAPRIN2] to “RACGAAGAGEASRGRVLRQELDSPTLLSSRQGPGSHILLTLERLELTPLDGKCISEKGKAAWGSPI [SLC1A7]”, the median enrichment falls from 45.5 to 9.89.

Compared with “RACQEVTTSLLPAAWARTALRFEGNMDPFGPAGTGHIPHPRATMGVGNFLVCFLIYL [PLEKHH3]”, RAETSALLTLRDTTRLHGEV [CORO2A] is lower in median enrichment: 8.55 for the first, 6.49 for the second.

Compared with “RAGPAPCPRSPLLSRPHPPPARPTRGATPPFESLAVGWTLPFPEAA [C1QL4]”, “RAGVCWHRQPPLWALGGPLKGSPTRGPDESFLSGVGSQRGSPPAAWGRAWPGRVIQRVCQPLTGSPSVAATRSTELLQPRGQL [FAM53B]” is lower in median enrichment: 13.1 for the first, 6.39 for the second.

Compared with RAHELRL [TNFAIP8], “RAKPDGQHRHRHTPQGPTLLSFTVPWHIGERIYPSPGSPGHSVLSKTRMWYQLWKRKVSCQQYLLPSRQPSQVRHLLRSHREP [SPSB4]” is higher in median enrichment: 0.408 for the first, 7.24 for the second.

First: RALLAPAFHALPIPPPPPPPPATEGRPEPPSLPSPLGGRGGHWKGGTPPPQQLRRGFWN [TOMM40]
Second: RALLERLLCHPFAPERGSSQLS [DNPEP]
The median enrichment of the first is lower: 0.777 for the first, 9.53 for the second.

Compared with “RALVPWQRDEKLQALSPAWAGSGARGCDSSRRVETLGWTGGGQRPAGGAPGMCPDMVNL [VAV1]”, RAMPSLCAVKLSMHYILLAPLQVNAKSQLG [CDC14A] is higher in median enrichment: 1.76 for the first, 7.49 for the second.

Going from RAPAVIIQHDAA [PLXNA1] to RAPPLTEAAPPTAPNKNVKTNPRT [NDUFA3], the median enrichment falls from 5.99 to 0.588.

Going from “RAPTLQPQTLCTPRCDAGRGPPPGRTDCRSWEPRHAQASAEGAAGGSARLDPWHLIKKFSLMSMVVGQPSSLSQQAHAASVTS [ZFPM1]” to “RAPVGKGGGLRGRGWMPRAPKPPFPFVSKGVRSELRKRASECVSLEGLGALWCYHLETCLMPPCLPMEDRLQELGPCGNLACF [MTA2]”, the median enrichment rises from 2.21 to 5.52.

First: RAPVWMLLPRLQTTGSFPCPNPRRSFLEGSWALGTCVSCAYHRPRPPWISWIGVGE [TXNRD1]
Second: RAPWWERL [HTT]
The median enrichment of the first is higher: 10.1 for the first, 1.54 for the second.

Compared with RAQLLRAQTPA [TNK1], RARCPSPS [PTH2] is higher in median enrichment: 1.82 for the first, 2.74 for the second.

First: RAS [ABCF2]
Second: RASPAHCQGRRGPDQGPRGLRAPPLSPPQCLRGPEPPPVPAAPLPQGPAMPHPGLKFCKVLRGPEHVSATRGSGQHCVLRLVS [SLC29A4]
The median enrichment of the first is lower: 0.408 for the first, 8.55 for the second.

Going from RASSFS [KLHL10] to RASVGG [MDFI], the median enrichment rises from 0.821 to 9.54.

Compared with “RAWLPACTPPLPPHESPPAGYRGRHAPGASPALGTTCLPAPPGPGPPAAPHFRRGLEQGEAGLWGAVREIYWGPQILL [ECEL1]”, “RAWVLTPGRATLSDLKMRILGTGCLSPQQNQNESLKAQDSAFATLPLSWYRRWM [ZNF410]” is higher in median enrichment: 4.03 for the first, 8.88 for the second.

Compared with RBP1, “RCAGSFLPSVKGQRCADLIFQLTTCFKRKIAHEKCLLAFQSIFEITG [FAM104A]” is lower in median enrichment: 6.79 for the first, 5.07 for the second.

Going from RCCCHGGLGQRGERSVLEA [OBSCN] to “RCDQVALGRDPRVFMRHLKLIKELRLELIWCSP [KCNC2]”, the median enrichment falls from 11.1 to 10.9.

First: RCFRRLFFSSRSCHLIILH [COMMD10]
Second: RCKPPYESTVADRRRGGCCSCRSINMCCMSFLLFF [LMO7]
The median enrichment of the first is lower: 7.76 for the first, 22.4 for the second.

Going from RCLELCCCQHDLFGA [TPH2] to “RCLPRAVDARAPVHTHTSTLTSPQCCASSTRFYSSQNCILNAQETFKLFMKRCVYREEEGANAVRIMFRL [UBE2QL1]”, the median enrichment rises from 5.32 to 11.9.

Compared with RCPCHLPSVHPESSQ [PPFIBP2], RCPGDVTDSWQSHGPRLPKSVCWQLFP [S100P] is higher in median enrichment: 0.445 for the first, 8.26 for the second.

Going from RCRVFSSFFLLQEFVVT [MMP16] to RCTKDLLF [GNA13], the median enrichment falls from 3.48 to 1.38.

Going from RCVHSISEETTHRSFFSLF [GIPC2] to “RDALAMAQEKPARKNQTDFHTKEEASIFFFLFFIGVVTKPFRLLLFKI [QRICH1]”, the median enrichment rises from 8.59 to 33.

Going from RDASTGPSLFCPQP [HSPB8] to RDCACI [CPSF3], the median enrichment falls from 0.453 to 0.439.

Going from RDI [ACSM2A] to RDKVRVFSSYILSQATLQDVAKAYIFP [IPCEF1], the median enrichment rises from 0.259 to 3.59.

First: RDRALRCQGENPSSNPGYLETEKLEF [ITLN2]
Second: RDSRTKSLCMKLPTMNVMMLYTKVTRQLSLSGFRSVFGTSLSSTYSAHGNYKLYISFPIVFQNVFSTEHA [RUFY2]
The median enrichment of the first is lower: 0.166 for the first, 8.53 for the second.

Going from “RDSSACPPWGPCCRPGGQSRWERHSQGQGKEGTHTHTHTHTHTHTYILLSLPKPIRQVNGQCLLGPWTHFLLGEAAS [GLP1R]” to RDSSP [CD1C], the median enrichment falls from 3.35 to 0.413.

Going from RDVQDL [ZMPSTE24] to REA [NPSR1], the median enrichment rises from 0.177 to 4.09.

Compared with READTFFQQ [ADAM12], REAGLPVLLPQGPLWLFTNKDPFVK [BCL7C] is higher in median enrichment: 0.392 for the first, 6.88 for the second.

Compared with REALHLNLFMS [ERI2], REAMPWSWD [SLN] is lower in median enrichment: 2.13 for the first, 0.623 for the second.

First: REAWPR [ELOVL1]
Second: REDAFLFMGFLPWSLSSKCHSGQSFVSVS [NOD1]
The median enrichment of the first is lower: 0.427 for the first, 33.9 for the second.

First: REDHGLSVPQSQLPDG [TBC1D10C]
Second: REEWGRLRSCGPRPRSLRGCLGDHLDLEAESAILPD [DHRS2]
The median enrichment of the first is lower: 1.36 for the first, 2.36 for the second.

Going from REFYRDAEKKERSEAIYAYGSRKR [CHCHD7] to “REGSNGSRELDTVHPNTSPPPGHLEESSARIPRQSSPPAPAVPSCAVLLPHSAPGPCPFIPLKHPLKPLHHFHSQQKVIEHLL [HAUS5]”, the median enrichment falls from 7.02 to 7.

Going from REKGNAQERNTVSPISDLDSTGYMEEI [OR8B8] to RELHYPFPSQTTN [MDC1], the median enrichment falls from 0.597 to 0.473.

Compared with RELTCETSA [FOXP2], RENQHP [CRYBG3] is higher in median enrichment: 0.325 for the first, 0.514 for the second.

First: REPKGDWALWQLLSHTVDHSSPSCSLSSSECGW [TRIM66]
Second: REQ [UNC93A]
The median enrichment of the first is higher: 12.8 for the first, 5.69 for the second.

First: REQQMELWERGEQWGYRESSSALPLGQPHLPAVSPGHFSTSQVEVLQGPAATCIRRTSFSA [SPATA19]
Second: REQVPAPHTPWRLPLRLHRLLPSIQPGVQVALFRGQMQAVGRTLPVSCVPHRERLWGDGWGMQSLRANKSSSEPASPLNV [KHK]
The median enrichment of the first is higher: 4.52 for the first, 2.84 for the second.

Compared with RERGLSSSLPAPSSPRPSSLCAW [HOXC10], “RERTTPSLPSMDGHSSAASSATSCSQPMPGGAAIFSPHHPFTHS [EHMT2]” is lower in median enrichment: 4.17 for the first, 0.484 for the second.

First: RESAGIEQSSPAQVSSLP [ZNF622]
Second: RESLHLEITTGYASGI [ZNF41]
The median enrichment of the first is lower: 0.239 for the first, 5.83 for the second.

Going from “RESSCILENTIPDFPQTALHQYNCISSFYIVQ [SCRG1]” to RETPTTPQPHRTNNSLQV [DCSTAMP], the median enrichment falls from 13.8 to 0.265.

Compared with “REVYLKKKSETDTSNPAVTTTPTTYVHMTNNFQVGFS [KCNH1]”, “RFHRSAFGHLLWWVLVTHFRLRFDGLNLYSLESMSCVYSTIRNLILFLLLFLQKQKLILKSIIMGWGGGCPQDMQDFCRGQHR [SETD4]” is higher in median enrichment: 4.02 for the first, 8.11 for the second.

Going from RFLVTA [GXYLT1] to RFPSPLLLLLLDGNHSLDHACSL [TUBG2], the median enrichment falls from 2.37 to 2.18.

First: RFQIWRRPGKPTEVQHVICLKVVLLHHIDDPTTSNMGHSIHFNISIFLYHFCYLSV [ARPC5]
Second: RGAEGPMGEERRALLGKVGFLDPRDKLFRCHNVEESTWGTTVLVQVGLGKCTSLPLTPRQNPHPSLWILGKVPVPGEYPGPQT [IGHMBP2]
The median enrichment of the first is higher: 6.81 for the first, 5.61 for the second.

Compared with RGAF [HPX], RGAGTCDRLWWHH [NAGA] is higher in median enrichment: 0.586 for the first, 1.53 for the second.

Going from “RGAHGQDWWGLQDVRRVRCLALATLFLVGFCCCSCYFHL [PSMC3IP]” to “RGALVSPQSSQAAGSPRQLSGHPVPSAPPSAALCSRPAPPSRGCLGLFTCFPSHINTVFPLLSYNSPTAHSPPH [TNFSF12]”, the median enrichment rises from 7.83 to 8.64.

First: RGASLLSSHSGSSFHPPPSPPPTRGTWWREAGRLFCGIARSSLWCRLVAITCNKAPGKGK [TLE6]
Second: RGAV [RELT]
The median enrichment of the first is higher: 21.9 for the first, 0.538 for the second.

First: RGCAPAGSSKDRPARSPSNPTFFWKGGVLQGQAGASSRLLGANPSMYIAFLSCLRAADSQRCARGERCAVGSRA [TNFRSF1A]
Second: RGCQLGRKRETRP [CCND2]
The median enrichment of the first is higher: 10.5 for the first, 0.783 for the second.

Going from “RGDAVGLAEPRFSHQQGECWPDTSEDPGLVIICLGGTG [GMPPB]” to RGFRHCIPELL [PPM1M], the median enrichment falls from 7.69 to 1.19.

First: RGGMGFTDMVLIH [GABRG2]
Second: RGGRTSNLPKRLPCPNPFITPSFRHPQPLLAQKENWGLRVGTQA [TNF]
The median enrichment of the first is lower: 7.24 for the first, 7.66 for the second.

Going from RGGRWEPSFQ [OR6Q1] to “RGGSASVPSLTSLGCCFSGVMSPLPLGYLPSTGQGPWWADGN [SFXN3]”, the median enrichment rises from 0.248 to 21.3.

Compared with “RGHRSEMRGLECGWAPGAMGGCGAGEIKSELLLPGVPTSSSGQSVHSQPDR [BCL2]”, RGIRLPGNSGTVALADHLQHPAS [SLC2A10] is lower in median enrichment: 1.46 for the first, 0.279 for the second.

Going from RGK [PKP2] to “RGKRAPVRRKGRRFRDVGGHPSPSRPCWGHGSGGGDMGPRQTASPTEHLDSNSVPGGAPTPPFSVSSCLFFFIFITKFHSF [ZFP36L2]”, the median enrichment rises from 0.513 to 5.27.

Compared with RGKTTGRPESGPARCSGEFLISSHWGN [BPIFB2], RGKTWKRPACLQ [RRM1] is lower in median enrichment: 0.953 for the first, 0.421 for the second.

First: RGLGWAGARRAAGWPLGGQDGTVGTEVGGRGPSGLN [TNFRSF8]
Second: RGLLALTLQPTLAVWPSPGSFPAPLPLFPVLLNSPSWRVQALGMGGTRPHSFHRALRPDTADQPHSAQEAASGVGAQRGTAAS [BAP1]
The median enrichment of the first is higher: 6.62 for the first, 2.63 for the second.

First: RGLLPLGPLTLSGWWTTKYNPVYNLKIYFTFVLLYLFIKG [SMAD4]
Second: RGLRRGLTEP [SLC22A6]
The median enrichment of the first is higher: 6.89 for the first, 0.442 for the second.

Going from “RGNLQAEEVSAAALLEPGRGLPVSQPGPATQDSWDIPCVTPLRPFGLAPWLSLREVALRLAIYIYNLFT [HK3]” to RGNMCNVLTKVTGTY [PLEKHS1], the median enrichment falls from 4.11 to 1.76.

Compared with RGPALPPCTSPGAERS [PRMT1], RGPASHGPRTMESPLSS [GNB1L] is lower in median enrichment: 1.08 for the first, 0.533 for the second.

With RGPEASWVSLGPQKLIKE [PCP2] the median enrichment was 0.815.

With RGASSSE [SLC1A6] the median enrichment was 0.611 and 0.437.
